In general, Kd refers to the concentration at which binding is half-saturated. A low value points to tighter binding.

Assay [1] addresses Hoc- Soc- bacteriophage T4 capsid (Soc binding sites) (bacteriophage T4) (UniProt P04535). Briefly: in vitro binding to Hoc- Soc- T4 phage, SDS-PAGE.
Assay [2] shares this target.

Consider “F1mutV-Soc (66 kDa) recombinant protein with RB49 Soc”, for which, in assay [1], the ratio of antigen molecules to Soc binding sites at saturation (antigen molecules : Soc binding sites) was determined as 20. Further, in assay [2], the Kd turned out to be 298 nM and the percent occupancy of the 870 Soc binding sites worked out at 75%.
The like results for “Soc-PA (93 kDa) recombinant protein with RB49 Soc” were, in that order, 20, 737 nM and 42%.

The values are drawn from patent US20180264102A1.
